According to patent US20250035633A1 (published 2025):
Like-named read-outs stand apart in the source and are kept apart here.

B1: mLic3 (antibody, V domains shown)
VH: EVQLVESGGGLVKPGGSLKLSCAASGFSFSDYYMYWVRQAPEKRLEWVASISFDGTYTYYTDRVKGRFTISRDNAKNNLYLQMSSLKSEDTAMYYCARDRPAWFPYWGQGTLVTVSA
VL: DVLMTQIPLSLTVSLGDQASISCRSSQSIVHSNGNTYLEWYLQRPGQSPKLLIYKVSNRFSGVPDRFSGSGSGTDFTLKISRVEAEDLGVYYCFQGSHVPLTFGAGTKLELK
B2: m7C5 (antibody, V domains shown)
VH: QVQLQQSGAELARPGASVKLSCKASGYTFTSYGLSWVKQRTGQGLEWIGEIFPRSGNSYYNEKFKGKAALTADKSSSTAYMQLSSLTSEDSAVYFCARHYYSSLYYAMDYWGQGTSVTVSS
VL: DIQVTQSPASLSASVGESVSITCGTNENLYGALNWYQRKQGKSPQLLIYGATNLADGMSSRFSGSGSGRQYSLKISSLHPDDVATYYCQNVLSTPRTFGGGTKLEIK

Legend:
recombinant CDH17-hFc [1] = biological target: T1, recombinant CDH17-hFc (human, UniProt Q12864 23-787); assay: ELISA
T1 sequence (Q12864 23-787): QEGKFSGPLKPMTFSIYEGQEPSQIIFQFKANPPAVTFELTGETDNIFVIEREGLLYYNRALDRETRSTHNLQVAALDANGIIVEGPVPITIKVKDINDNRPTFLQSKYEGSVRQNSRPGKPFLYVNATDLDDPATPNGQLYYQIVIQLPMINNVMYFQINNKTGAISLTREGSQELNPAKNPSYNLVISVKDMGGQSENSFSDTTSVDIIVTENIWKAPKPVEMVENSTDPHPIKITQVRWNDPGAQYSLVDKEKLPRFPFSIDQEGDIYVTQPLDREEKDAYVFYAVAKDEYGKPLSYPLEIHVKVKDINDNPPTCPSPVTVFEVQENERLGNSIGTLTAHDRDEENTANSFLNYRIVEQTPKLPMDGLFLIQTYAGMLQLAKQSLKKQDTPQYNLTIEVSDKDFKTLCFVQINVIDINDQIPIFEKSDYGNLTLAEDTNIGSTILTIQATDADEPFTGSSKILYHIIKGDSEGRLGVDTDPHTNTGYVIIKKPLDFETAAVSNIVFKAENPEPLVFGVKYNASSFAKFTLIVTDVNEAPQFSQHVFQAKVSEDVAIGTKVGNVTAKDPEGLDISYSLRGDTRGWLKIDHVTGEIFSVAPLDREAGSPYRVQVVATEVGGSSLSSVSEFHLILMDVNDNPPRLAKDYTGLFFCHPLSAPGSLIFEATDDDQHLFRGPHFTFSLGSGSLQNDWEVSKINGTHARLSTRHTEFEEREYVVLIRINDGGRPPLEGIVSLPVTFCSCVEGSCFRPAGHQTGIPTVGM

recombinant CDH17-hFc [2] = biological target: T1, recombinant CDH17-hFc; assay: OCTET BLI
recombinant CDH17-hFc [3] = biological target: T1, recombinant CDH17-hFc; assay: OCTET BLI; remark: listed apart in the source
recombinant CDH17-hFc [4] = biological target: T1, recombinant CDH17-hFc; assay: ELISA; remark: listed apart in the source

Binder | EC50 (recombinant CDH17-hFc [1]) [ng/mL] | Kd (recombinant CDH17-hFc [2]) [nM] | Kd (recombinant CDH17-hFc [3]) [nM] | EC50 (recombinant CDH17-hFc [4]) [ng/mL]
B1 | 7.9 | 10.9 | – | –
B2 | – | – | 20.6 | 4.2
